PMC12241074

Molecular target: mouse IgM (mouse)

For “recombinant mouse polymeric immunoglobulin receptor (from UniProt O70570 19-771)”, the GSDMD level (Western blot) in primary mouse AT2 treated for 16 h with iKP + r pIgR (0.5 ug/mL) + IgM (0.5 ug/mL), compared with non-treated cells was 326% and the GSDMD-NT level (Western blot) in primary mouse AT2 treated for 16 h with iKP + r pIgR (0.5 ug/mL) + IgM (0.5 ug/mL), compared with non-treated cells was 13 fold.
